Read-outs that look alike come from different tables or passages of the source.
Legend:
[1] = target: Fructose 1,6-bisphosphatase II from Francisella tularensis (glpX gene product) (Francisella tularensis); assay: SEC
[2] = target: Fructose 1,6-bisphosphatase II from Francisella tularensis (glpX gene product) (Francisella tularensis); assay: SEC; remark: listed apart in the source

Fructose 1,6-bisphosphatase II from Francisella tularensis (glpX gene product) (enzyme)
stoichiometry N [1]: 2
stoichiometry N [2]: 4
